Common to all, as to test: purified protein
Data set [1] relates to CCCCOC(=O)c1ccccc1C(=O)OCCCC.
Data set [2] relates to CCCCCOC(=O)c1ccccc1C(=O)OCCCCC. To be noted: pH 7.5; 10.0 °C.
Data set [3] deals with CCCOC(=O)c1ccccc1C(=O)OCCC. To be noted: pH 7.5; 10.0 °C.
Where [4] appears, read: 10 mM sodium phosphate pH 7.5, 10°C.

As for DphB (uncultured bacterium; D255A), in data set [1] (setting [4]), the Km came out at 20300 ± 1170 µM and the kcat came out at 6.95 ± 1.42 s⁻¹.

Regarding DphB (uncultured bacterium), in data set [2], the Km was found to be 378 ± 18 µM, the Vmax stood at 45.9 µmol/min/mg and the specificity constant (kcat/Km) was 118000 ± 4000 M⁻¹ s⁻¹. Besides, in data set [1] (pH 7.5, 10.0 °C), the Michaelis constant (Km) worked out at 561 ± 16 µM, the Vmax worked out at 40.7 µmol/min/mg and the kcat/Km was determined as 70000 ± 2000 M⁻¹ s⁻¹. Moreover, in data set [3], the Km worked out at 271 ± 12 µM, the Vmax was 46.4 µmol/min/mg and the kcat/Km was found to be 166000 ± 5000 M⁻¹ s⁻¹.

Broadly, the Km is the substrate concentration at which the rate is half of its maximum. Broadly, the kcat is the maximal rate divided by the concentration of active sites. Broadly, the Vmax is the rate approached at saturating substrate. By kcat/Km is commonly meant the second-order rate constant that governs catalysis at low substrate concentration.

The values are drawn from article PMC3792999, “Identification and Characterization of a Cold-Active Phthalate Esters Hydrolase by Screening a Metagenomic Library Derived from Biofilms of a Wastewater Treatment Plant” (PLoS ONE, 2013).
